Test results reported in article PMC4909301, “Fibulin-5 Regulates Angiopoietin-1/Tie-2 Receptor Signaling in Endothelial Cells” (PLoS ONE, 2016).

Target: T1, recombinant human Tie-2/Fc chimera (human, UniProt Q02763 23-748)
T1 construct: TIE-2 receptor tyrosine kinase, human, part fused to Fc in R&D Systems Cat. #313-TI-100; source: bought: R&D Systems
Assay: ELISA; solid-phase binding assay; TIE-2/Fc (4.0 ug/ml) or Fibulin-5 (20 ug/ml) coated on 96-well plates; 1:2 serial dilutions of soluble Ang-1 in 2% non-fat milk in TBS, 1 hr, room temperature; detected with Ang-1 antibody
Details: both partners purified

T1 sequence (Q02763 23-748, change not shown): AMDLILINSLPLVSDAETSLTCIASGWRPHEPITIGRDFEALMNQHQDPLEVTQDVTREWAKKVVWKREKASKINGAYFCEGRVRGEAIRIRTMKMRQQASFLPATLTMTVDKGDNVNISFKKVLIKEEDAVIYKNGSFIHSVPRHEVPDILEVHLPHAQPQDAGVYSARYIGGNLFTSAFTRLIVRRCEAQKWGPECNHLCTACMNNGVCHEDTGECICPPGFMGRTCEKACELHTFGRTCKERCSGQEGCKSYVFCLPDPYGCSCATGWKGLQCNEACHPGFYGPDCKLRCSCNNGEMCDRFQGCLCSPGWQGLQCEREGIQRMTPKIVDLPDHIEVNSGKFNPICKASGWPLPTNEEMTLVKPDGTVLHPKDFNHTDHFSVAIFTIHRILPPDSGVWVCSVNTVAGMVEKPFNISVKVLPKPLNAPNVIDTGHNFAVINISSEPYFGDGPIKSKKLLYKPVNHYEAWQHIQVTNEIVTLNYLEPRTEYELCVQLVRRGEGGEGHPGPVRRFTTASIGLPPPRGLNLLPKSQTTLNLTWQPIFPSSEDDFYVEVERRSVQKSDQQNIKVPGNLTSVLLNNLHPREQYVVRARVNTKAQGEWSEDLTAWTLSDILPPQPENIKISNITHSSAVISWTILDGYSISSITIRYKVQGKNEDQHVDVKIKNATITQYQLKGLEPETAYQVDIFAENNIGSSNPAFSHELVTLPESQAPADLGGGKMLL

B1: recombinant human Ang-1 (angiopoietin-1) (ligand, UniProt Q15389 16-498, looked up)
chain: HIGCSNQRRSPENSGRRYNRIQHGQCAYTFILPEHDGNCRESTTDQYNTNALQRDAPHVEPDFSSQKLQHLEHVMENYTQWLQKLENYIVENMKSEMAQIQQNAVQNHTATMLEIGTSLLSQTAEQTRKLTDVETQVLNQTSRLEIQLLENSLSTYKLEKQLLQQTNEILKIHEKNSLLEHKILEMEGKHKEELDTLKEEKENLQGLVTRQTYIIQELEKQLNRATTNNSVLQKQQLELMDTVHNLVNLCTKEGVLLKGGKREEEKPFRDCADVYQAGFNKSGIYTIYINNMPEPKKVFCNMDVNGGGWTVIQHREDGSLDFQRGWKEYKMGFGNPSGEYWLGNEFIFAITSQRQYMLRIELMDWEGNRAYSQYDRFHIGNEKQNYRLYLKGHTGTAGKQSSLILHGADFSTKDADNDNCMCKCALMLTGGWWFDACGPSNLNGMFYTAGQNHGKLNGIKWHYFKGPSYSLRSTTMMIRPLDF
notes: angiopoietin-1, human, recombinant, R&D Systems Cat. #923-AN/CF; The introduction calls angiopoietins oligomeric glycoproteins; source: bought: R&D Systems
- binding result: binds
